Assay results from patent US20210355194A1 (TWIST BIOSCIENCE, published 2021).

Experiments:
SARS-CoV-2 S1 protein [1] = target: T1, SARS-CoV-2 S1 protein (SARS-CoV-2, UniProt P0DTC2 16-685)
SARS-CoV-2 S1 protein [2] = target: T1, SARS-CoV-2 S1 protein; remark: listed apart in the source

B1: 2-9 (antibody, V domains shown)
VH: EVQLLESGGGLVQPGGSLRLSCAASGFTFPRYAMSWVRQAPGKGLEWVSTISGSGSTTYYADSVKGRFTISRDNSKNTLYLQMNSLRAEDTAVYYCARLIDAFDIWGQGTLVTVSS
VL: DIQMTQSPSSLSASVGDRVTITCRASQRIGTYLNWYQQKPGKAPKLLIYAASNLEGGVPSRFSGSGSGTDFTLTISSLQPEDFATYYCQQNYSTTWTFGQGTKVEIK
notes: also called variant 2-9
In the case of B1, the IC50 (SARS-CoV-2 S1 protein [1]) is reported as 23.2 nM and the EC50 (SARS-CoV-2 S1 protein [2]) is reported as 12.6 nM.
